According to patent US20240117018A1:

Columns and labels:
Experiment in all cases: cell-based or functional assay
[1] = target: HIV-1 Env of pseudovirus 0815.v3.c3 (HIV-1)
[2] = target: HIV-1 Env of pseudovirus 191084 B7-19 (HIV-1)
[3] = target: HIV-1 Env of pseudovirus 191955_A11 (HIV-1)
[4] = target: HIV-1 Env of pseudovirus 211-9 (HIV-1)
[5] = target: HIV-1 Env of pseudovirus 231966.c02 (HIV-1)
[6] = target: HIV-1 Env of pseudovirus 235-47 (HIV-1)
[7] = target: HIV-1 Env of pseudovirus 263-8 (HIV-1)
[8] = target: HIV-1 Env of pseudovirus 3016.v5.c45 (HIV-1)
[9] = target: HIV-1 Env of pseudovirus 3301.v1.c24 (HIV-1)
[10] = target: HIV-1 Env of pseudovirus 3817.v2.c59 (HIV-1)
[11] = target: HIV-1 Env of pseudovirus 620345.c01 (HIV-1)
[12] = target: HIV-1 Env of pseudovirus 6480.v4.c25 (HIV-1)
[13] = target: HIV-1 Env of pseudovirus 6540.v4.c1 (HIV-1)
[14] = target: HIV-1 Env of pseudovirus 6545.v4.c1 (HIV-1)
[15] = target: HIV-1 Env of pseudovirus 6811.v7.c18 (HIV-1)
[16] = target: HIV-1 Env of pseudovirus 89-F1_2_25 (HIV-1)
[17] = target: HIV-1 Env of pseudovirus 9004SS_A3_4 (HIV-1)
[18] = target: HIV-1 Env of pseudovirus 928-28 (HIV-1)
[19] = target: HIV-1 Env of pseudovirus A07412M1.vrc12 (HIV-1)
[20] = target: HIV-1 Env of pseudovirus BJOX010000.06.2 (HIV-1)
[21] = target: HIV-1 Env of pseudovirus BJOX015000.11.5 (HIV-1)
[22] = target: HIV-1 Env of pseudovirus BJOX025000.01.1 (HIV-1)
[23] = target: HIV-1 Env of pseudovirus BJOX028000.10.3 (HIV-1)
[24] = target: HIV-1 Env of pseudovirus C1080.c03 (HIV-1)
[25] = target: HIV-1 Env of pseudovirus C4118.c09 (HIV-1)
[26] = target: HIV-1 Env of pseudovirus P0402_c2_11 (HIV-1)
[27] = target: HIV-1 Env of pseudovirus P1981_C5_3 (HIV-1)
[28] = target: HIV-1 Env of pseudovirus R1166.c01 (HIV-1)
[29] = target: HIV-1 Env of pseudovirus R2184.c04 (HIV-1)
[30] = target: HIV-1 Env of pseudovirus R3265.c06 (HIV-1)
[31] = target: HIV-1 Env of pseudovirus T251-18 (HIV-1)
[32] = target: HIV-1 Env of pseudovirus T255-34 (HIV-1)
[33] = target: HIV-1 Env of pseudovirus X1193_c1 (HIV-1)
[34] = target: HIV-1 Env of pseudovirus X1254_c3 (HIV-1)
[35] = target: HIV-1 Env of pseudovirus X1632_S2_B10 (HIV-1)
[36] = target: HIV-1 Env of pseudovirus X2131_C1_B5 (HIV-1)

In the case of PGDM1400 (antibody), the IC50 (Titer in TZM.bl cells) [1] was greater than 50 µg/mL, the IC80 (Titer in TZM.bl cells) [1] was greater than 50 µg/mL and the neutralization IC50 [2] was less than 1 ng/mL. For the same substance, the neutralization IC80 [2] was 7 ng/mL, the neutralization IC50 [3] was 1 ng/mL and the neutralization IC80 [3] was 0.021 µg/mL. The IC50 (Titer in TZM.bl cells) [4] was 0.088 µg/mL, the IC80 (Titer in TZM.bl cells) [4] was 0.393 µg/mL and the IC50 (Titer in TZM.bl cells) [5] was 1 ng/mL. The IC80 (Titer in TZM.bl cells) [5] was 4 ng/mL, the IC50 (Titer in TZM.bl cells) [6] was 5 ng/mL and the IC80 (Titer in TZM.bl cells) [6] was 0.032 µg/mL. For the same substance, the neutralization IC50 [7] was 0.02 µg/mL, the neutralization IC80 [7] was 0.103 µg/mL and the IC50 (Titer in TZM.bl cells) [8] was greater than 50 µg/mL. It also gave an IC80 (Titer in TZM.bl cells) [8] greater than 50 µg/mL, an IC50 (Titer in TZM.bl cells) [9] of 0.048 µg/mL and an IC80 (Titer in TZM.bl cells) [9] of 0.245 µg/mL. For the same substance, the IC50 (Titer in TZM.bl cells) [10] was greater than 50 µg/mL, the IC80 (Titer in TZM.bl cells) [10] was greater than 50 µg/mL and the IC50 (Titer in TZM.bl cells) [11] was 9 ng/mL. It also gave an IC80 (Titer in TZM.bl cells) [11] of 40.3 µg/mL, an IC50 (Titer in TZM.bl cells) [12] greater than 50 µg/mL and an IC80 (Titer in TZM.bl cells) [12] greater than 50 µg/mL. For the same substance, the IC50 (Titer in TZM.bl cells) [13] was 4 ng/mL, the IC80 (Titer in TZM.bl cells) [13] was 0.028 µg/mL and the IC50 (Titer in TZM.bl cells) [14] was 3 ng/mL. For the same substance, the IC80 (Titer in TZM.bl cells) [14] was 0.039 µg/mL, the IC50 (Titer in TZM.bl cells) [15] was greater than 50 µg/mL and the IC80 (Titer in TZM.bl cells) [15] was greater than 50 µg/mL. For the same substance, the IC50 (Titer in TZM.bl cells) [16] was 1 ng/mL, the IC80 (Titer in TZM.bl cells) [16] was 5 ng/mL and the neutralization IC50 [17] was less than 1 ng/mL. The neutralization IC80 [17] was 2 ng/mL, the neutralization IC50 [18] was 0.22 µg/mL and the neutralization IC80 [18] was 1.25 µg/mL. It also gave an IC50 (Titer in TZM.bl cells) [19] of 0.032 µg/mL, an IC80 (Titer in TZM.bl cells) [19] of 0.127 µg/mL and an IC50 (Titer in TZM.bl cells) [20] of 0.605 µg/mL. The IC80 (Titer in TZM.bl cells) [20] was 5.87 µg/mL, the IC50 (Titer in TZM.bl cells) [21] was 0.52 µg/mL and the IC80 (Titer in TZM.bl cells) [21] was 10.6 µg/mL. The IC50 (Titer in TZM.bl cells) [22] was 0.087 µg/mL, the IC80 (Titer in TZM.bl cells) [22] was 0.573 µg/mL and the IC50 (Titer in TZM.bl cells) [23] was 0.072 µg/mL. The IC80 (Titer in TZM.bl cells) [23] was 0.963 µg/mL, the IC50 (Titer in TZM.bl cells) [24] was less than 1 ng/mL and the IC80 (Titer in TZM.bl cells) [24] was less than 1 ng/mL. It also gave an IC50 (Titer in TZM.bl cells) [25] of 2 ng/mL, an IC80 (Titer in TZM.bl cells) [25] of 5 ng/mL and an IC50 (Titer in TZM.bl cells) [26] of 0.01 µg/mL. For the same substance, the IC80 (Titer in TZM.bl cells) [26] was 0.033 µg/mL, the IC50 (Titer in TZM.bl cells) [27] was 0.104 µg/mL and the IC80 (Titer in TZM.bl cells) [27] was 4.6 µg/mL. The IC50 (Titer in TZM.bl cells) [28] was 1.43 µg/mL, the IC80 (Titer in TZM.bl cells) [28] was 6.92 µg/mL and the IC50 (Titer in TZM.bl cells) [29] was 3 ng/mL. For the same substance, the IC80 (Titer in TZM.bl cells) [29] was 0.012 µg/mL, the IC50 (Titer in TZM.bl cells) [30] was 0.013 µg/mL and the IC80 (Titer in TZM.bl cells) [30] was 0.041 µg/mL. For the same substance, the IC50 (Titer in TZM.bl cells) [31] was 8.62 µg/mL, the IC80 (Titer in TZM.bl cells) [31] was 43.1 µg/mL and the IC50 (Titer in TZM.bl cells) [32] was 0.654 µg/mL. It also gave an IC80 (Titer in TZM.bl cells) [32] greater than 50 µg/mL, an IC50 (Titer in TZM.bl cells) [33] of 0.219 µg/mL and an IC80 (Titer in TZM.bl cells) [33] of 0.781 µg/mL. The IC50 (Titer in TZM.bl cells) [34] was greater than 50 µg/mL, the IC80 (Titer in TZM.bl cells) [34] was greater than 50 µg/mL and the IC50 (Titer in TZM.bl cells) [35] was 0.055 µg/mL. It also gave an IC80 (Titer in TZM.bl cells) [35] of 1.45 µg/mL, an IC50 (Titer in TZM.bl cells) [36] of 0.128 µg/mL and an IC80 (Titer in TZM.bl cells) [36] of 0.568 µg/mL.
